Experimental data reported in paper PMC4694137.

What was measured:
[1] = target: AgaR2 (SSU05_0447) protein from Streptococcus suis (Streptococcus suis); experiment: cross-linking; purified protein (~5 mg/mL) in 15 uL incubated with EGS cross-linker (0, 2.5, 5, 10, 20 umol/L for AgaR2; 0.1, 0.2, 0.5, 1.0, 2.5, 5, 10, 20 umol/L for AgaR1) for 1 h at room temperature; 12% SDS-PAGE, Coomassie staining
[2] = target: AgaR1 (SSU05_0448) protein from Streptococcus suis (Streptococcus suis); experiment: as above

Substance | stoichiometry N [1] | stoichiometry N [2]
AgaR2 (SSU05_0447) protein from Streptococcus suis (natural protein) | 2 | 
AgaR1 (SSU05_0448) protein from Streptococcus suis (natural protein) |  | 2
